Results on 7 molecules are retold here after publication PMC2964679, “Characterization of exceptionally thermostable single-stranded DNA-binding proteins from Thermotoga maritima and Thermotoga neapolitana” (BMC Microbiology, 2010).

For series [1], the target named is T1, TneSSB (Thermotoga neapolitana DSM 4359, UniProt D1M925 1-142).
T1 sequence: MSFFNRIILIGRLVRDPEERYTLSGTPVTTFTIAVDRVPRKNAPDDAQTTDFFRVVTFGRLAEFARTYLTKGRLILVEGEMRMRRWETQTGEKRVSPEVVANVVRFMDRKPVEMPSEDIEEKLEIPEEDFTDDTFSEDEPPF
Briefly: fluorescence titration (Trp quenching); 2 mM NaCl; cooperative affinity omega*K; site size 68 +/- 2 nt; quench 95%; 20 mM Tris-HCl pH 7.5, 1 mM EDTA, 2 or 100 mM NaCl, 25°C; EMSA 10 pmol oligo (1.5 pmol M13) with 10-200 pmol SSB in 10 µl, 2% agarose in TAE; titration 1 nM SSB with 0-0.8 nM (dT)76. The settings on record: protein: recombinant; tags: none stated (NdeI/HindIII in pET30Ek/LIC, start and stop codon in primers); chain copies: 4; single strand. Background: A gel shift assay detects complexes by their altered migration in electrophoresis.

Series [2] has as its target T2, TmaSSB (Thermotoga maritima MSB8 (DSM 3106), UniProt Q9WZ73 1-141).
T2 sequence: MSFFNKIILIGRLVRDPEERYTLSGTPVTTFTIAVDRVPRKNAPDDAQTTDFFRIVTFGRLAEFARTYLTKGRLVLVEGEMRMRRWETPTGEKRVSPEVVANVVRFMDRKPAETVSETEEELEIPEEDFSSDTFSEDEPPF
The series is described as above. The settings on record: protein: recombinant; tags: none stated (NdeI/HindIII in pET30Ek/LIC, start and stop codon in primers); chain copies: 4; single strand.

The target of series [3] is T1, TneSSB. Nature of the series: EMSA (agarose); 2 or 100 mM NaCl; one tetramer; 20 mM Tris-HCl pH 7.5, 1 mM EDTA, 2 or 100 mM NaCl, 25°C; EMSA 10 pmol oligo (1.5 pmol M13) with 10-200 pmol SSB in 10 µl, 2% agarose in TAE; titration 1 nM SSB with 0-0.8 nM (dT)76. The settings on record: protein: recombinant; tags: none stated (NdeI/HindIII in pET30Ek/LIC, start and stop codon in primers); chain copies: 4; label: 5'-fluorescein (EMSA); single strand.

Series [4] has as its target T2, TmaSSB. Described as above. The settings on record: protein: recombinant; tags: none stated (NdeI/HindIII in pET30Ek/LIC, start and stop codon in primers); chain copies: 4; label: 5'-fluorescein (EMSA); single strand.
Series [5] concerns the molecule itself. Briefly: SEC; FPLC analytical gel filtration on a Superdex HR 75 column, calibrated with bovine albumin, ovalbumin, carbon anhydrase and cytochrome C; oligomeric state in solution. Background: In gel filtration, larger molecules generally elute earlier.
Series [6] concerns the target T1, TneSSB. Nature of the series: EMSA (agarose); 2 or 100 mM NaCl; two tetramers at high protein; 20 mM Tris-HCl pH 7.5, 1 mM EDTA, 2 or 100 mM NaCl, 25°C; EMSA 10 pmol oligo (1.5 pmol M13) with 10-200 pmol SSB in 10 µl, 2% agarose in TAE; titration 1 nM SSB with 0-0.8 nM (dT)76. As to conditions: protein: recombinant; tags: none stated (NdeI/HindIII in pET30Ek/LIC, start and stop codon in primers); chain copies: 4; label: 5'-fluorescein (EMSA); single strand.

Series [7] has as its target T2, TmaSSB. Described as above. As to conditions: protein: recombinant; tags: none stated (NdeI/HindIII in pET30Ek/LIC, start and stop codon in primers); chain copies: 4; label: 5'-fluorescein (EMSA); single strand.

B1: (dT)76 (titration) (ssDNA)
DNA: TTTTTTTTTTTTTTTTTTTTTTTTTTTTTTTTTTTTTTTTTTTTTTTTTTTTTTTTTTTTTTTTTTTTTTTTTTTT
As to B1, the binding result in the series with TneSSB [1] and with TmaSSB [2] was “binds” in each case.

B2: (dT)76 (ssDNA)
DNA: TTTTTTTTTTTTTTTTTTTTTTTTTTTTTTTTTTTTTTTTTTTTTTTTTTTTTTTTTTTTTTTTTTTTTTTTTTTT
With B2, the binding result in the series with TneSSB [3] and in the series with TmaSSB [4] was “binds” throughout.

B3: single-stranded DNA-binding protein from Thermotoga maritima (TmaSSB) (natural protein, UniProt Q9WZ73 1-141, looked up)
chain: MSFFNKIILIGRLVRDPEERYTLSGTPVTTFTIAVDRVPRKNAPDDAQTTDFFRIVTFGRLAEFARTYLTKGRLVLVEGEMRMRRWETPTGEKRVSPEVVANVVRFMDRKPAETVSETEEELEIPEEDFSSDTFSEDEPPF
notes: ssb gene amplified with primers from the ATG start codon to the TGA stop codon, cloned between NdeI and HindIII of pET30Ek/LIC (pETSSBTma); No tag is mentioned; cloning between NdeI and HindIII with the gene's own stop codon probably leaves out the vector's tags (surmised); also called T. maritima SSB; source: E. coli BL21(DE3)pLysS, purified (heat treatment at 80°C, QAE-cellulose, …)
Regarding B3, in series [5], the “stoichiometry N” value was 4.

B4: (dT)60 (ssDNA)
DNA: TTTTTTTTTTTTTTTTTTTTTTTTTTTTTTTTTTTTTTTTTTTTTTTTTTTTTTTTTTTT
Regarding B4, the binding result in the series with TneSSB [3] and in the series with TmaSSB [4] was “binds” in each case.

B5: (dT)35 (ssDNA)
DNA: TTTTTTTTTTTTTTTTTTTTTTTTTTTTTTTTTTT
For B5, the binding result with TneSSB [3] and with TmaSSB [4] was “binds” throughout.

B6: single-stranded DNA-binding protein from Thermotoga neapolitana (TneSSB) (natural protein, UniProt D1M925 1-142, looked up)
chain: MSFFNRIILIGRLVRDPEERYTLSGTPVTTFTIAVDRVPRKNAPDDAQTTDFFRVVTFGRLAEFARTYLTKGRLILVEGEMRMRRWETQTGEKRVSPEVVANVVRFMDRKPVEMPSEDIEEKLEIPEEDFTDDTFSEDEPPF
notes: ssb gene amplified with primers from the ATG start codon to the TGA stop codon, cloned between NdeI and HindIII of pET30Ek/LIC (pETSSBTne); No tag is mentioned; cloning between NdeI and HindIII with the gene's own stop codon probably leaves out the vector's tags (surmised); also called T. neapolitana SSB; source: E. coli BL21(DE3)pLysS, purified (heat treatment at 80°C, QAE-cellulose, …)
Regarding B6, the “stoichiometry N” value in series [5] amounted to 4.

B7: (dT)120 (ssDNA)
DNA: TTTTTTTTTTTTTTTTTTTTTTTTTTTTTTTTTTTTTTTTTTTTTTTTTTTTTTTTTTTTTTTTTTTTTTTTTTTTTTTTTTTTTTTTTTTTTTTTTTTTTTTTTTTTTTTTTTTTTTTT
For the molecule B7, the binding result with TneSSB [6] and with TmaSSB [7] was “binds” each time.

By stoichiometry N is commonly meant a count of units in the complex or per binding partner.
